Test system: Abp1 PPIs
Assay: DHFR-PCA of Abp1 SH3-swapped baits (Fig. 2B-D, S2C, S2F);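 for Protein-protein interaction distance between Abp1 SH3-swapped baits, to ABP1: Euclidean distance between DHFR-PCA score profiles of the baits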;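 for Protein-protein interaction distance between Abp1 SH3-swapped baits, to BEM1-2: Euclidean distance between DHFR-PCA score profiles of the baits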;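 for Protein-protein interaction distance between Abp1 SH3-swapped baits, to BOI1: Euclidean distance between DHFR-PCA score profiles of the baits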;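 for Protein-protein interaction distance between Abp1 SH3-swapped baits, to BZZ1-1: Euclidean distance between DHFR-PCA score profiles of the baits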
Type: cell-based, Saccharomyces cerevisiae
Outline: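 Yeast DHFR-PCA in which Abp1 baits, carrying their SH3 replaced by CRISPR–Cas9 with one of 27 yeast SH3s or human CTTN, HCLS1 or DBNL SH3s, were mated against 575 SH3-associated DHFR F[3] preys plus 40 negative controls. Four tests were run per PPI. Diploids were selected twice (48 h, 30 °C), then grown 4 days on PCA selection media.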

[1] = number of PPIs, difference, Abp1 SH3-swapped with the listed SH3, Fig2D,S2F

B1: BBC1: yeast SH3-containing protein; SH3-deleted or knockout strain (protein, UniProt P47068 1-1157, looked up)
Myosin tail …: MSEPEVPFKVVAQFPYKSDYEDDLNFEKDQEIIVTSVEDAEWYFGEYQDSNGDVIEGIFPKSFVAVQGSEVGKEAESSPNTGSTEQRTIQPEVEQKDLPEPISPETKKETLSGPVPVPAATVPVPAATVPVPAATAVSAQVQHDSSSGNGERKVPMDSPKLKARLSMFNQDITEQVPLPKSTHLDLENIPVKKTIVADAPKYYVPPGIPTNDTSNLERKKSLKENEKKIVPEPINRAQVESGRIETENDQLKKDLPQMSLKERIALLQEQQRLQAAREEELLRKKAKLEQEHERSAVNKNEPYTETEEAEENEKTEPKPEFTPETEHNEEPQMELLAHKEITKTSREADEGTNDIEKEQFLDEYTKENQKVEESQADEARGENVAEESEIGYGHEDREGDNDEEKEEEDSEENRRAALRERMAKLSGASRFGAPVGFNPFGMASGVGNKPSEEPKKKQHKEKEEEEPEQLQELPRAIPVMPFVDPSSNPFFRKSNLSEKNQPTETKTLDPHATTEHEQKQEHGTHAYHNLAAVDNAHPEYSDHDSDEDTDDHEFEDANDGLRKHSMVEQAFQIGNNESENVNSGEKIYPQEPPISHRTAEVSHDIENSSQNTTGNVLPVSSPQTRVARNGSINSLTKSISGENRRKSINEYHDTVSTNSSALTETAQDISMAAPAAPVLSKVSHPEDKVPPHPVPSAPSAPPVPSAPSVPSAPPVPPAPPALSAPSVPPVPPVPPVSSAPPALSAPSIPPVPPTPPAPPAPPAPLALPKHNEVEEHVKSSAPLPPVSEEYHPMPNTAPPLPRAPPVPPATFEFDSEPTATHSHTAPSPPPHQNVTASTPSMMSTQQRVPTSVLSGAEKESRTLPPHVPSLTNRPVDSFHESDTTPKVASIRRSTTHDVGEISNNVKIEFNAQERWWINKSAPPAISNLKLNFLMEIDDHFISKRLHQKWVVRDFYFLFENYSQLRFSLTFNSTSPEKTVTTLQERFPSPVETQSARILDEYAQRFNAKVVEKSHSLINSHIGAKNFVSQIVSEFKDEVIQPIGARTFGATILSYKPEEGIEQLMKSLQKIKPGDILVIRKAKFEAHKKIGKNEIINVGMDSAAPYSSVVTDYDFTKNKFRVIENHEGKIIQNSYKLSHMKSGKLKVFRIVARGYVGW
Abp1 bait with swapped SH3, distance to bait with ABP1 SH3, sheet Fig2C
  Protein-protein interaction distance between Abp1 SH3-swapped baits, to ABP1: 7.08
Distance to Abp1 bait with BBC1 SH3, sheet Fig2C
  Protein-protein interaction distance between Abp1 SH3-swapped baits, to BBC1: 0.00
Distance to Abp1 bait with BEM1-1 SH3, sheet Fig2C
  Protein-protein interaction distance between Abp1 SH3-swapped baits, to BEM1-1: 12.07
Distance to Abp1 bait with BEM1-2 SH3, sheet Fig2C
  Protein-protein interaction distance between Abp1 SH3-swapped baits, to BEM1-2: 30.95
Distance to Abp1 bait with BOI1 SH3, sheet Fig2C
  Protein-protein interaction distance between Abp1 SH3-swapped baits, to BOI1: 9.448
Distance to Abp1 bait with BOI2 SH3, sheet Fig2C
  Protein-protein interaction distance between Abp1 SH3-swapped baits, to BOI2: 12.67
Distance to Abp1 bait with BUD14 SH3, sheet Fig2C
  Protein-protein interaction distance between Abp1 SH3-swapped baits, to BUD14: 15.23
Distance to Abp1 bait with BZZ1-1 SH3, sheet Fig2C
  Protein-protein interaction distance between Abp1 SH3-swapped baits, to BZZ1-1: 7.773
Distance to Abp1 bait with BZZ1-2 SH3, sheet Fig2C
  Protein-protein interaction distance between Abp1 SH3-swapped baits, to BZZ1-2: 9.168
Distance to Abp1 bait with CDC25 SH3, sheet Fig2C
  Protein-protein interaction distance between Abp1 SH3-swapped baits, to CDC25: 24.45
Distance to Abp1 bait with CTTN SH3, sheet Fig2C
  Protein-protein interaction distance between Abp1 SH3-swapped baits, to CTTN: 6.802
Distance to Abp1 bait with CYK3 SH3, sheet Fig2C
  Protein-protein interaction distance between Abp1 SH3-swapped baits, to CYK3: 25.11
Distance to Abp1 bait with DBNL SH3, sheet Fig2C
  Protein-protein interaction distance between Abp1 SH3-swapped baits, to DBNL: 7.329
Distance to Abp1 bait with FUS1 SH3, sheet Fig2C
  Protein-protein interaction distance between Abp1 SH3-swapped baits, to FUS1: 16.64
Distance to Abp1 bait with HCLS1 SH3, sheet Fig2C
  Protein-protein interaction distance between Abp1 SH3-swapped baits, to HCLS1: 6.39
Distance to Abp1 bait with HOF1 SH3, sheet Fig2C
  Protein-protein interaction distance between Abp1 SH3-swapped baits, to HOF1: 29.63
Distance to Abp1 bait with HSE1 SH3, sheet Fig2C
  Protein-protein interaction distance between Abp1 SH3-swapped baits, to HSE1: 7.295
Distance to Abp1 bait with LSB1 SH3, sheet Fig2C
  Protein-protein interaction distance between Abp1 SH3-swapped baits, to LSB1: 13.47
Distance to Abp1 bait with LSB3 SH3, sheet Fig2C
  Protein-protein interaction distance between Abp1 SH3-swapped baits, to LSB3: 13.63
Distance to Abp1 bait with MYO3 SH3, sheet Fig2C
  Protein-protein interaction distance between Abp1 SH3-swapped baits, to MYO3: 13.06
Distance to Abp1 bait with MYO5 SH3, sheet Fig2C
  Protein-protein interaction distance between Abp1 SH3-swapped baits, to MYO5: 12.56
Distance to Abp1 bait with NBP2 SH3, sheet Fig2C
  Protein-protein interaction distance between Abp1 SH3-swapped baits, to NBP2: 14.24
Distance to Abp1 bait with PEX13 SH3, sheet Fig2C
  Protein-protein interaction distance between Abp1 SH3-swapped baits, to PEX13: 10.86
Distance to Abp1 bait with PIN3 SH3, sheet Fig2C
  Protein-protein interaction distance between Abp1 SH3-swapped baits, to PIN3: 11.25
Distance to Abp1 bait with RVS167 SH3, sheet Fig2C
  Protein-protein interaction distance between Abp1 SH3-swapped baits, to RVS167: 9.304
Distance to Abp1 bait with SDC25 SH3, sheet Fig2C
  Protein-protein interaction distance between Abp1 SH3-swapped baits, to SDC25: 31.85
Distance to Abp1 bait with SLA1-1 SH3, sheet Fig2C
  Protein-protein interaction distance between Abp1 SH3-swapped baits, to SLA1-1: 27.19
Distance to Abp1 bait with SLA1-2 SH3, sheet Fig2C
  Protein-protein interaction distance between Abp1 SH3-swapped baits, to SLA1-2: 16.91
Distance to Abp1 bait with SLA1-3 SH3, sheet Fig2C
  Protein-protein interaction distance between Abp1 SH3-swapped baits, to SLA1-3: 13.32
Distance to Abp1 bait with YSC84 SH3, sheet Fig2C
  Protein-protein interaction distance between Abp1 SH3-swapped baits, to YSC84: 14.14
[1]
  PPIs gained by Abp1 - SH3-dependent PPIs gained by Abp1: 2
  SH3-dependent PPIs - SH3-dependent PPIs gained by Abp1: 19
Number of PPIs, Abp1 SH3-swapped with the listed SH3, DHFR-PCA, Fig2D,S2F
  SH3-dependent PPIs gained by Abp1: 0
Number of interactions of Abp1 carrying the named SH3, sheet FigS2A-B
  Interactions in Abp1: 78

Source: article PMC7954794, “Protein context shapes the specificity of SH3 domain-mediated interactions in vivo” (Nature Communications, 2021)
